Data on 7 substances can be found in patent publication US20230140293A1.

One assay concerns the target CH505 M5 gp120 (HIV-1). Nature of the assay: ELISA, gp120 on plate.
Assay [1] deals with CH505 w020.14 gp120 (HIV-1). The assay can be described thus: ELISA, gp120 on plate. Background: ELISA stands for enzyme-linked immunosorbent assay.
Assay [2] deals with CH505 transmitted/founder (TF) gp120 (HIV-1). The assay can be described thus: ELISA, gp120 on plate.
The target of assay [3] is CH505 w078.15 gp120 (HIV-1). The assay can be described thus: ELISA, gp120 on plate.
The target in assay [4] is CH505 w053.16 gp120 (HIV-1). The assay can be described thus: ELISA, gp120 on plate.
Another assay deals with CH505 M11 gp120 (HIV-1). The assay can be described thus: ELISA, gp120 on plate.
In assay [5] the target is CH505 w030.28 gp120 (HIV-1). Nature of the assay: ELISA, gp120 on plate.
Assay [6] has as its target HIV-1 426c.SM (N276D) Env on Env-pseudotyped virus produced in 293s/GnTI-/- cells (Man5-enrichment) (HIV-1). The assay can be described thus: cell-based or functional assay.
Assay [7] deals with CH0505TF.gly4 Env, pseudotyped virus produced in 293S GnTI- cells (HIV-1). Nature of the assay: cell-based or functional assay.
The target of assay [8] is HIV-1 Env 426c, Env-pseudotyped virus produced in 293S GnTI- cells (Man5-enriched) (HIV-1 clade C strain 426c). Nature of the assay: cell-based or functional assay.
Assay [9] addresses HIV-1 426c.TM (N276D/N460D/N463D) Env on Env-pseudotyped virus produced in 293T cells (HIV-1). The assay can be described thus: cell-based or functional assay.
Assay [10] has as its target CH0505TF.gly3.276 Env, pseudotyped virus produced in 293S GnTI- cells (HIV-1). The assay can be described thus: cell-based or functional assay.
Assay [11] deals with CH0505.w4.3 Env, Env-pseudotyped virus produced in 293T cells (HIV-1). Nature of the assay: cell-based or functional assay.
For assay [12], the target named is HIV-1 426c.SM (N276D) Env on Env-pseudotyped virus produced in 293T cells (HIV-1). The assay can be described thus: cell-based or functional assay.
Assay [13] has as its target HIV-1 Env 426c.SM (N276D), Env-pseudotyped virus produced in 293T cells (HIV-1 clade C strain 426c). The assay can be described thus: cell-based or functional assay.
Assay [14] addresses HIV-1 426c.DM (N460D/N463D) Env on Env-pseudotyped virus produced in 293T cells (HIV-1). The assay can be described thus: cell-based or functional assay.
The target in assay [15] is HIV-1 clade C strain 426c Env on Env-pseudotyped virus produced in 293T cells (HIV-1). Nature of the assay: cell-based or functional assay.
Assay [16] addresses HIV-1 Env 426c.TM4 (S278R.G471S.N460D.N463D), Env-pseudotyped virus produced in 293S GnTI- cells (Man5-enriched) (HIV-1 clade C strain 426c). The assay can be described thus: cell-based or functional assay.
The target in assay [17] is HIV-1 Env 426c.SM (N276D), Env-pseudotyped virus produced in 293S GnTI- cells (Man5-enriched) (HIV-1 clade C strain 426c). The assay can be described thus: cell-based or functional assay.
Assay [18] deals with HIV-1 Env 426c.TM4 (S278R.G471S.N460D.N463D), Env-pseudotyped virus produced in 293T cells (HIV-1 clade C strain 426c). The assay can be described thus: cell-based or functional assay.
For assay [19], the target named is HIV-1 Env 426c, Env-pseudotyped virus produced in 293T cells (HIV-1 clade C strain 426c). The assay can be described thus: cell-based or functional assay.
The target in assay [20] is CH0505TF Env, pseudotyped virus produced in 293S GnTI- cells (HIV-1). Nature of the assay: cell-based or functional assay.
Assay [21] has as its target CH0505TF.gly4 Env, Env-pseudotyped virus produced in 293T cells (HIV-1). Nature of the assay: cell-based or functional assay.
In assay [22] the target is CH0505TF.gly3.461 Env, Env-pseudotyped virus produced in 293T cells (HIV-1). Nature of the assay: cell-based or functional assay.
Assay [23] has as its target HIV-1 Env 426c.TM (N276D.N460D.N463D), Env-pseudotyped virus produced in 293T cells (HIV-1 clade C strain 426c). The assay can be described thus: cell-based or functional assay.
Assay [24] addresses CH0505TF.gly3.197 Env, pseudotyped virus produced in 293S GnTI- cells (HIV-1). Nature of the assay: cell-based or functional assay.
Assay [25] has as its target CH0505TF.gly3.197 Env, Env-pseudotyped virus produced in 293T cells (HIV-1). Nature of the assay: cell-based or functional assay.
Assay [26] has as its target CH0505TF.G458Y Env, pseudotyped virus produced in 293S GnTI- cells (HIV-1). The assay can be described thus: cell-based or functional assay.
Assay [27] deals with HIV-1 clade C strain 426c Env on Env-pseudotyped virus produced in 293s/GnTI-/- cells (Man5-enrichment) (HIV-1). The assay can be described thus: cell-based or functional assay.
Assay [28] concerns the target HIV-1 Env 426c.DM (N460D.N463D), Env-pseudotyped virus produced in 293S GnTI- cells (Man5-enriched) (HIV-1 clade C strain 426c). The assay can be described thus: cell-based or functional assay.
Assay [29] has as its target CH0505TF.gly3.461 Env, pseudotyped virus produced in 293S GnTI- cells (HIV-1). The assay can be described thus: cell-based or functional assay.
The target of assay [30] is HIV-1 426c.TM (N276D/N460D/N463D) Env on Env-pseudotyped virus produced in 293s/GnTI-/- cells (Man5-enrichment) (HIV-1). Nature of the assay: cell-based or functional assay.
In assay [31] the target is CH0505TF.G458Y Env, Env-pseudotyped virus produced in 293T cells (HIV-1). Nature of the assay: cell-based or functional assay.
The target in assay [32] is CH0505TF Env, Env-pseudotyped virus produced in 293T cells (HIV-1). The assay can be described thus: cell-based or functional assay.
In assay [33] the target is CH0505TF.gly3.276 Env, Env-pseudotyped virus produced in 293T cells (HIV-1). Nature of the assay: cell-based or functional assay.
Assay [34] deals with HIV-1 426c.DM (N460D/N463D) Env on Env-pseudotyped virus produced in 293s/GnTI-/- cells (Man5-enrichment) (HIV-1). Nature of the assay: cell-based or functional assay.
In assay [35] the target is HIV-1 Env 426c.TM (N276D.N460D.N463D), Env-pseudotyped virus produced in 293S GnTI- cells (Man5-enriched) (HIV-1 clade C strain 426c). Nature of the assay: cell-based or functional assay.
The target of assay [36] is HIV-1 Env 426c.DM (N460D.N463D), Env-pseudotyped virus produced in 293T cells (HIV-1 clade C strain 426c). The assay can be described thus: cell-based or functional assay.
The target in assay [37] is CH0505TF.gly3.197 Env, Env-pseudotyped virus produced in 293S GnTI- cells (Man5-enriched) (HIV-1). The assay can be described thus: cell-based or functional assay.
For assay [38], the target named is CH0505TF.gly3.276 Env, Env-pseudotyped virus produced in 293S GnTI- cells (Man5-enriched) (HIV-1). The assay can be described thus: cell-based or functional assay.
Assay [39] has as its target CH0505TF.G458Y Env, Env-pseudotyped virus produced in 293S GnTI- cells (Man5-enriched) (HIV-1). The assay can be described thus: cell-based or functional assay.
In assay [40] the target is CH0505TF.gly3.461 Env, Env-pseudotyped virus produced in 293S GnTI- cells (Man5-enriched) (HIV-1). Nature of the assay: cell-based or functional assay.
The target of assay [41] is CH0505TF.gly4 Env, Env-pseudotyped virus produced in 293S GnTI- cells (Man5-enriched) (HIV-1). The assay can be described thus: cell-based or functional assay.
The target of assay [42] is CH0505TF Env, Env-pseudotyped virus produced in 293S GnTI- cells (Man5-enriched) (HIV-1). The assay can be described thus: cell-based or functional assay.

With “CH103 lineage intermediate ancestor IA3 (antibody)”, the log AUC with CH505 M5 gp120 (HIV-1) came out at 6.8 log AUC; in [1], 9.5 log AUC; in [2], 11 log AUC; in assay [3] it was 3 log AUC; in assay [4], 1.1 log AUC; with CH505 M11 gp120 (HIV-1) it was 11.8 log AUC. This substance also had a log AUC in assay [5] of 7.7 log AUC.

Regarding IgG1b12 (antibody), the ID50/IC50 in TZM-bl in assay [6], in assay [9], in assay [12], in assay [14], in [15] and in assay [27] was greater than 25 µg/mL each time. For the same substance, the ID50/IC50 in TZM-bl in [30] and in assay [34] was greater than 25 µg/mL each time. For the same substance, the IC50 (µg/ml) in TZM-bl is 0.001 µg/mL in [7]; greater than 25 µg/mL in [8]; 0.01 µg/mL in assay [10]; less than 0.02 µg/mL in [11]; greater than 25 µg/mL in assay [13]; greater than 25 µg/mL in [16]. The IC50 (µg/ml) in TZM-bl in assay [17] is greater than 25 µg/mL; in [18], greater than 25 µg/mL; in assay [19], greater than 25 µg/mL; in assay [20], 0.61 µg/mL; in [21], 0.004 µg/mL; in [22], 0.011 µg/mL. The IC50 (µg/ml) in TZM-bl in [23] was greater than 25 µg/mL; in assay [24] it was 0.26 µg/mL; in assay [25] it was 0.68 µg/mL; in [26], 0.22 µg/mL; in assay [28], greater than 25 µg/mL; in assay [29], 0.02 µg/mL. For the same substance, the IC50 (µg/ml) in TZM-bl was 0.1 µg/mL in [31]; 0.98 µg/mL in assay [32]; 0.007 µg/mL in assay [33]; greater than 25 µg/mL in assay [35]; greater than 25 µg/mL in [36].

Consider “CH103 lineage intermediate ancestor IA8 (antibody)”, for which the log AUC was determined as 0.6 log AUC with CH505 M5 gp120 (HIV-1); 3.4 log AUC in assay [1]; 5.5 log AUC in [2]; 6.2 log AUC with CH505 M11 gp120 (HIV-1); 1.6 log AUC in [5].

Turning to “CH103 lineage intermediate ancestor IA6 (antibody)”, the log AUC with CH505 M5 gp120 (HIV-1) turned out to be 3.3 log AUC; in [1] it was 7.9 log AUC; in assay [2], 9.1 log AUC; in [3], 1 log AUC; with CH505 M11 gp120 (HIV-1), 10 log AUC; in assay [5], 6.3 log AUC.

With “CH103 lineage intermediate ancestor IA7 (antibody)”, the log AUC was 2.3 log AUC with CH505 M5 gp120 (HIV-1); 7.2 log AUC in assay [1]; 9.2 log AUC in [2]; 0.7 log AUC in assay [3]; 10.1 log AUC with CH505 M11 gp120 (HIV-1); 3.5 log AUC in assay [5].

Consider “CH103 lineage intermediate ancestor IA4 (antibody)”, for which the log AUC with CH505 M5 gp120 (HIV-1) was 3.8 log AUC; in assay [1], 8.6 log AUC; in assay [2], 10.1 log AUC; in [3], 1.3 log AUC; in [4] it was 0.2 log AUC; in the assay with CH505 M11 gp120 (HIV-1) it was 10.5 log AUC. The substance also showed a log AUC in assay [5] of 6.5 log AUC.

2557 (antibody): the ID50/IC50 in TZM-bl in assay [6], in assay [9], in [12], in assay [14], in assay [15] and in [27] was greater than 25 µg/mL in each case. The ID50/IC50 in TZM-bl in [30] and in assay [34] was greater than 25 µg/mL in each case. In addition, the IC50 (µg/ml) in TZM-bl in assay [8], in assay [37], in [38], in assay [11], in assay [39] and in [40] was greater than 25 µg/mL in each case. The IC50 (µg/ml) in TZM-bl in assay [13], in [16], in [17], in assay [41], in assay [18] and in [19] was greater than 25 µg/mL each time. Also, the IC50 (µg/ml) in TZM-bl in assay [21], in assay [22], in assay [23], in assay [25], in assay [28] and in assay [31] was greater than 25 µg/mL in each case. Further, the IC50 (µg/ml) in TZM-bl in [32], in [33], in [35], in [42] and in assay [36] was greater than 25 µg/mL throughout.
